Experimental data published in the Immune Epitope Database (IEDB).

Experiments:
HLA-A*02:17 = experiment: IEDB peptide-MHC binding, purified MHC/competitive/radioactivity; filed as Kd, often an IC50 or EC50 that approximates it; ≥ and ≤ were set here for values at or beyond the usual limits of such assays
HLA-A*02:06 [1] = experiment: as above
HLA-A*02:01 [2] = experiment: as above
HLA-B*15:01 [3] = experiment: IEDB peptide-MHC binding, purified MHC/competitive/fluorescence; ≥ and ≤ were set here for values at or beyond the usual limits of such assays
HLA-A*24:02 = experiment: as above
HLA-B*08:01 [4] = experiment: as above
HLA-A*02:01 [5] = experiment: as above
HLA-B*45:01 = experiment: IEDB peptide-MHC binding, purified MHC/competitive/radioactivity; filed as Kd, often an IC50 or EC50 that approximates it; ≥ and ≤ were set here for values at or beyond the usual limits of such assays
HLA-B*44:03 = experiment: as above
HLA-B*40:01 = experiment: as above
HLA-B*44:02 = experiment: as above
HLA-B*40:02 = experiment: as above
HLA-B*18:01 [6] = experiment: as above
HLA-A*02:03 [7] = experiment: as above
HLA-B*15:01 [8] = experiment: as above; settings: source organism: Dengue virus 2 Jamaica/1409/1983
HLA-B*08:01 [9] = experiment: as above; settings: source organism: Dengue virus 2 Jamaica/1409/1983
HLA-A*26:01 = experiment: IEDB peptide-MHC binding, purified MHC/competitive/fluorescence; filed as Kd, often an IC50 or EC50 that approximates it; ≥ and ≤ were set here for values at or beyond the usual limits of such assays; settings: source organism: Zaire ebolavirus
HLA-B*51:01 = experiment: as above; settings: source organism: Zaire ebolavirus
HLA-A*69:01 = experiment: as above; settings: source organism: Zaire ebolavirus
HLA-B*57:01 = experiment: as above; settings: source organism: Zaire ebolavirus
HLA-B*27:03 = experiment: as above; settings: source organism: Zaire ebolavirus
HLA-B*46:01 = experiment: as above; settings: source organism: Zaire ebolavirus
HLA-B*39:01 = experiment: as above; settings: source organism: Zaire ebolavirus
HLA-A*02:01 [10] = experiment: as above
HLA-B*15:17 = experiment: as above; settings: source organism: Zaire ebolavirus
HLA-B*18:01 [11] = experiment: as above; settings: source organism: Zaire ebolavirus
HLA-A*02:03 [12] = experiment: IEDB peptide-MHC binding, purified MHC/direct/fluorescence; filed as Kd, often an IC50 or EC50 that approximates it; ≥ and ≤ were set here for values at or beyond the usual limits of such assays; settings: source organism: Zaire ebolavirus
HLA-A*02:19 = experiment: as above; settings: source organism: Zaire ebolavirus
HLA-B*15:01 [13] = experiment: as above; settings: source organism: Zaire ebolavirus
HLA-A*02:16 = experiment: as above; settings: source organism: Zaire ebolavirus
HLA-A*02:11 = experiment: as above; settings: source organism: Zaire ebolavirus
HLA-A*24:03 = experiment: as above; settings: source organism: Zaire ebolavirus
HLA-A*29:02 = experiment: as above; settings: source organism: Zaire ebolavirus
HLA-A*02:12 = experiment: as above; settings: source organism: Zaire ebolavirus
HLA-A*03:01 = experiment: as above; settings: source organism: Zaire ebolavirus
HLA-A*68:02 [14] = experiment: as above; settings: source organism: Zaire ebolavirus
HLA-A*02:06 [15] = experiment: IEDB peptide-MHC binding, purified MHC/competitive/fluorescence; filed as Kd, often an IC50 or EC50 that approximates it; ≥ and ≤ were set here for values at or beyond the usual limits of such assays; settings: source organism: Vibrio vulnificus YJ016
HLA-C*14:02 = experiment: IEDB peptide-MHC binding, purified MHC/direct/fluorescence; filed as Kd, often an IC50 or EC50 that approximates it; ≥ and ≤ were set here for values at or beyond the usual limits of such assays; settings: source organism: Vibrio vulnificus YJ016
HLA-A*68:02 [16] = experiment: IEDB peptide-MHC binding, purified MHC/competitive/radioactivity; filed as Kd, often an IC50 or EC50 that approximates it; ≥ and ≤ were set here for values at or beyond the usual limits of such assays; settings: source organism: Dengue virus 4 Philippines/H241/1956
[17] = source organism: Dengue virus 4 Philippines/H241/1956
[18] = source organism: Sudan ebolavirus
[19] = source organism: Zaire ebolavirus
[20] = source organism: Lassa virus Josiah
[21] = source organism: SARS coronavirus Tor2
[22] = source organism: Dengue virus 2 Jamaica/1409/1983
[23] = source organism: Mammarenavirus guanaritoense
[24] = source organism: Mammarenavirus juninense
[25] = source organism: Mammarenavirus lassaense
[26] = source organism: Mammarenavirus whitewaterense

TMTLWYMWQV
Kd (HLA-A*02:17; [17]): 433 nM | Kd (HLA-A*02:06 [1]; [17]): 74.5 nM | Kd (HLA-A*02:01 [2]; [17]): 28.8 nM

TVIYRGVNF
IC50 (HLA-B*15:01 [3]; [18]): 28.3 µM | IC50 (HLA-A*24:02; [18]): 3580 nM | IC50 (HLA-B*08:01 [4]; [18]): ≥ 88 µM | IC50 (HLA-A*02:01 [5]; [18]): ≥ 790 µM

NFLIKFLLI
IC50 (HLA-A*24:02; [19]): 9.4 nM | IC50 (HLA-B*08:01 [4]; [19]): ≥ 1610 µM | IC50 (HLA-A*02:01 [5]; [19]): ≥ 614 µM

SEGKDTPGGY
Kd (HLA-B*45:01; [20]): ≥ 70 µM | Kd (HLA-B*44:03; [20]): 1.75 µM | Kd (HLA-B*40:01; [20]): ≥ 25.4 µM | Kd (HLA-B*44:02; [20]): 1450 nM | Kd (HLA-B*40:02; [20]): ≥ 70800 nM | Kd (HLA-B*18:01 [6]; [20]): ≥ 59.6 µM

KEQYCALSPG
Kd (HLA-B*45:01; [21]): 0.259 µM | Kd (HLA-B*44:03; [21]): 3.46 µM | Kd (HLA-B*40:01; [21]): 4.67 µM | Kd (HLA-B*44:02; [21]): 2610 nM | Kd (HLA-B*40:02; [21]): 831 nM | Kd (HLA-B*18:01 [6]; [21]): ≥ 70.5 µM

LMMATIGIAL
Kd (HLA-A*02:03 [7]; [22]): 8.92 nM | Kd (HLA-A*02:17; [22]): 171 nM | Kd (HLA-A*02:06 [1]; [22]): 13.6 nM | Kd (HLA-B*15:01 [8]): 6.5 nM | Kd (HLA-B*08:01 [9]): 398 nM | Kd (HLA-A*02:01 [2]; [22]): 11.2 nM

MMKDEPVVF
IC50 (HLA-B*15:01 [3]; [19]): 8.81 µM | IC50 (HLA-A*24:02; [19]): 218 nM | IC50 (HLA-B*08:01 [4]; [19]): ≥ 205 µM | IC50 (HLA-A*02:01 [5]; [19]): ≥ 116 µM

YEERLNEQLL
Kd (HLA-B*45:01; [23]): ≥ 70 µM | Kd (HLA-B*44:03; [23]): 14.6 µM | Kd (HLA-B*40:01; [23]): 2.48 µM | Kd (HLA-B*44:02; [23]): ≥ 10000 nM | Kd (HLA-B*40:02; [23]): 1640 nM | Kd (HLA-B*18:01 [6]; [23]): 5.99 µM

HEGHQTAAF
Kd (HLA-B*45:01; [21]): ≥ 26.2 µM | Kd (HLA-B*44:03; [21]): 4.75 µM | Kd (HLA-B*40:01; [21]): 2.98 µM | Kd (HLA-B*44:02; [21]): 1120 nM | Kd (HLA-B*40:02; [21]): 2810 nM | Kd (HLA-B*18:01 [6]; [21]): 4.27 µM

SEAREHLKNG
Kd (HLA-B*45:01; [21]): 8.32 µM | Kd (HLA-B*44:03; [21]): ≥ 28.1 µM | Kd (HLA-B*40:01; [21]): ≥ 39.3 µM | Kd (HLA-B*44:02; [21]): ≥ 36200 nM | Kd (HLA-B*40:02; [21]): 6590 nM | Kd (HLA-B*18:01 [6]; [21]): ≥ 70.5 µM

PDSCLNGKL
Kd (HLA-B*45:01; [24]): ≥ 25.6 µM | Kd (HLA-B*44:03; [24]): ≥ 78.1 µM | Kd (HLA-B*40:01; [24]): ≥ 67.9 µM | Kd (HLA-B*44:02; [24]): ≥ 77900 nM | Kd (HLA-B*40:02; [24]): ≥ 77200 nM | Kd (HLA-B*18:01 [6]; [24]): ≥ 20.1 µM

HQKKNEISF
Kd (HLA-A*26:01): ≥ 20 µM | Kd (HLA-B*51:01): ≥ 20 µM | Kd (HLA-A*69:01): ≥ 20 µM | Kd (HLA-B*57:01): ≥ 20 µM | Kd (HLA-B*27:03): ≥ 20 µM | Kd (HLA-B*46:01): ≥ 20 µM | Kd (HLA-B*39:01): ≥ 20 µM | Kd (HLA-A*02:01 [10]; [19]): ≥ 20000 nM | Kd (HLA-B*15:17): ≥ 20 µM | Kd (HLA-B*18:01 [11]): ≥ 20 µM | IC50 (HLA-B*15:01 [3]; [19]): 6.66 µM | IC50 (HLA-A*24:02; [19]): ≥ 116000 nM | IC50 (HLA-B*08:01 [4]; [19]): 42.2 µM | Kd (HLA-A*02:03 [12]): ≥ 20 µM | Kd (HLA-A*02:19): ≥ 20 µM | Kd (HLA-B*15:01 [13]): 233 nM | Kd (HLA-A*02:16): ≥ 20 µM | Kd (HLA-A*02:11): ≥ 20 µM | Kd (HLA-A*24:03): ≥ 20 µM | Kd (HLA-A*29:02): ≥ 20 µM | Kd (HLA-A*02:12): ≥ 20 µM | Kd (HLA-A*03:01): ≥ 20 µM | Kd (HLA-A*68:02 [14]): ≥ 20 µM

HSQGREAAV
IC50 (HLA-B*08:01 [4]; [19]): ≥ 172 µM | IC50 (HLA-A*02:01 [5]; [19]): ≥ 254 µM

RQIQGIAAF
Kd (HLA-A*02:06 [15]): 13.3 nM | Kd (HLA-A*02:01 [10]; source organism: Vibrio vulnificus YJ016): 1650 nM | Kd (HLA-C*14:02): 2620 nM

MVIGMAMTTV
Kd (HLA-A*02:03 [7]; [17]): 0.14 nM | Kd (HLA-A*02:17; [17]): 132 nM | Kd (HLA-A*02:06 [1]; [17]): 5.3 nM | Kd (HLA-A*02:01 [2]; [17]): 9.36 nM | Kd (HLA-A*68:02 [16]): 3.27 nM

FDAATTGSL
Kd (HLA-B*45:01; [25]): 14.4 µM | Kd (HLA-B*44:03; [25]): ≥ 44.6 µM | Kd (HLA-B*40:01; [25]): 16.6 µM | Kd (HLA-B*44:02; [25]): ≥ 22200 nM | Kd (HLA-B*40:02; [25]): 2290 nM | Kd (HLA-B*18:01 [6]; [25]): ≥ 38.9 µM

TEIEPKLDG
Kd (HLA-B*45:01; [21]): ≥ 28.6 µM | Kd (HLA-B*44:03; [21]): 13.4 µM | Kd (HLA-B*40:01; [21]): ≥ 76.2 µM | Kd (HLA-B*44:02; [21]): 17900 nM | Kd (HLA-B*40:02; [21]): ≥ 74800 nM | Kd (HLA-B*18:01 [6]; [21]): ≥ 77.5 µM

LEITDVTTL
Kd (HLA-B*45:01; [26]): ≥ 77.7 µM | Kd (HLA-B*44:03; [26]): 0.0618 µM | Kd (HLA-B*40:01; [26]): 0.127 µM | Kd (HLA-B*44:02; [26]): 25.7 nM | Kd (HLA-B*40:02; [26]): 80.1 nM | Kd (HLA-B*18:01 [6]; [26]): 0.462 µM
